# Experiment: soluble on expression in E. coli; label from the status in PepcDB or PDB records
row,Sequence,soluble on expression in E. coli
1,MASPENVILVHEISKLKTKEELWNPYEWYQFMRDNHPVHYDDEQDVWNVFLYDDVNRVLSDYSLFSSRRERRQFAIPPLETRININSTDPPEHRNVRSIVSKAFTPRSLEQWKPRIQSIANELVKDIENCSEVDIVEQFAAPLPVTVISDLLGVPTTDRKKIKAWSDILFMPYSKEKFNDLDAEKGIALNEFKAYLLPIVQEKRYHLTDDIISDLIRAEYEGERLTDEEIVTFSLGLLAAGNETTTNLIINSFYCFLVDSPATYKEVREKPKLISKAVEEVLRYRFPVTLARRITEDTNIFGPLMKKDQMVVAWVSAANLDEKKFSQASKFNIHRIGNEKHLTFGKGPHFCLGAPLARLEAEIALTTFINAFEKIALSPSFNIEQCILENEQTLKFLPIRLKPQ,not soluble
2,MSLAKITGGYTATGSAADTMNALAVDDNQSSSGYDRDSFGFRTTDVDGNGCDVRDDVLARDLTDITYKYAGSCVVESGTLADPYTAQTIHFVRGRATSAKVQIDHVVALENAWQSGARDWSTAKRHEFGNDPYNLMAVDGPANQEKGSASAAYWMPTNADYRCDYVARQIGVKDKYQLTVTSQEKDAMLAVLHTCPGQAVPADEEGHHHHHH,soluble
3,MGSSHHHHHHSSGRENLYFQGHMPSNLNIVKVTKPQEENKNFLHKNTNEPNEMEQSQTQEAVTENFTENSNLSANEHAARRGRLNLKTVDHIETYPIVQETEEIAKKIALTRIILAQTKPRIDKVVVSRPVQAVAPVVNFFDKMANSTLSTVERVVPSLKTKTYKRLGEEIALPYTLSKKYGKQLRDTTARNGDNYVYQPVHGRLMKFRKYYNEKFIDTKGKPLIRGQLDPVLLPVNNTFEKVTVKYLPKGKKVPNDSFSCEFNRGLALEYNFMTRAVSAVSHQVVGIAKLPIAYGYHTNSVYNKNLDKQADLKMKNVLRGTWDTITDLEREIWASVTDRSLFRFFGNKSEGGDLPHLVQ,soluble
4,MGSDKIHHHHHHMDFIEVYPNAIPDDLCDRLILAFEKHSGVVDGQTGNGVDLEKKISRDLTLDNFTDLQPLKNELLSYTLKGTADYFSQYAMALMGAVAVSVSDEQGQAVTLTPSNFERLGKPRAEALVKYLYRSGSINIQKYQKNKGGYPHWHSEQFPQLSHNEALHRVVLYMFYLNDVEEGGETEFYYQQRKISPKKGTMVIAPAGFTHSHRGNMPISNDKYIATSWVMFNRAEQLYAVYA,not soluble
5,MGSDKIHHHHHHMRAVSIVGLGWLGLTLARHLKNLGWKVKGTKRTHEGVEQMRLIRLEAYHLELTPDINADPDDLTALLSVDALVINIPPSQYFFHLQHYVQGVKNLVNEALLNGLQHIIFISSTSVFPDVSGEFDEQSQIVPQSEMSKALLEIEQWLFELKDVDCDIIRFGGLVGEDRHPVYSLAGKDELSAGNMPINLVHVDDCARAIQLLLETPSSQRLYHLVAPQHPTRAEYYSQIAEKLALEAPHFICSEQDPRRVILANKICRELSFVYQCPDPYLMLFERK,not soluble
6,MHHHHHHSSGVDLGTENLYFQSNAMLLPTDLSENSFKVLEYLGDFKKVGVEEIGVLFVINLTKLSTVSGGIDIDHYIDEMSEKAEEVLPEVAQKIEAAGIKAEVIKPFPAGDPVVEIIKASENYSFIAMGSRGASKFKKILLGSVSEGVLHDSKVPVYIFKHDMVVNSLFDRVLVAYDFSKWADRALEYAKFVVKKTGGELHIIHVSEDGDKTADLRVMEEVIGAEGIEVHVHIESGTPHKAILAKREEINATTIFMGSRGAGSVMTMILGSTSESVIRRSPVPVFVCKRGDDE,soluble
7,MINKTKRLMVPRTVKIPRKTYFWGPTPLPGRHKADHSVTLLTIIRDYLRLSDKEREATRILANGLVKVDGKVVKERKFGVGFMDVIEISGESYRVVYNNQGALVLVSESKDRANMKPLQVKNKVIAPGNKIQLGFHDGRVMVTEDRSISVGDVVIASLPDMKITEIIKMQPGNKAFITGGSHVGETGTISKIEIKESSSANLVHFDEGFTTVKDHVFVIGSPRFTFTMPSGEVYPLEHHHHHH,not soluble
8,MSDVAIVKEGWLHKRGEYIKTWRPRYFLLKNDGTFIGYKERPQDVDQREAPLNNFSVAQCQLMKTERPRPNTFIIRCLQWTTVIERTFHVETPEEREEWTTAIQTVADGLKKQEEEEMDFRSG,soluble
9,MSLKLTGEESDTLRKIVLEECLPNQQQNQNPSPCAEVKPNAGYVVLKDLNGPLQYLLMPTYRINGTESPLLTDPSTPNFFWLAWQARDFMSKKYGQPVPDRAVSLAINSRTGHTQNHFHIHISCIRPDVREQLDKNLANISSRWLPLPGGLRGHEYLARRVTESELVQRSPFMMLAEEVPEAREHMGSYGLAMVRQSDNSFVLLATQRNLLTLNRASAEEIQDHECEILREGHHHHHH,soluble
10,LARSMACNSETLSELSFALTVGQKANDCDWFVGNSLIVRLLDMTGELNQKNVYTNRGASGIDGLVATAVGVQLANDKPLLALVGDTSLLYDLNSLALLKQATQPMVVVVMNNDGGGIFDLLPVNEKKKDDFYRMPHQLEFSHAAAMFGLSYHRPETLSCAMSMINDGLEKGIHLIEINTPAGQSGEELTRLFQTIQHAALF,not soluble
11,MSSTKRPASRADEITQELVRMIQLADARRIAKLPTEMELAAQLGISRPVIRESLSRLESLNMVTRRQGSGLYIVAPEKRSPEALVLLEQSAPLSPRSIAEAMSVRAILELETGRLAALNHRQVDLDRMAAEIERLAATGARGLEAAEADEAFHRALSDAAGNVTLSQVLDLFLRLSWRRRVEYFSQPKLGKQSIIEHQEILNAVASGDPDAVSTAIRTHLNSAERFWDSKYVKKKS,not soluble
12,METAVEVRAPAAAAWELLTDTRRWSEWGPSVSGVECPERFIGPGTIGWVRTVVGLRLPFRITEFEPGRRWCWSVAGIPATGHRVEPLGQERCRVVFEVPMPAAPYLAVCRVAALRIRSILEGLEHHHHHH,not soluble
13,MGSDKIHHHHHHMNTYAQESKLRLKTKIGADGRCVIEDNFFTPPFKLMAPFYPKDDLAEIMLLAVSPGMMRGDAQDVQLNIGPNCKLRITSQSFEKIHNTEDGFASRDMHIVVGENAFLDFAPFPLIPFENAHFKGNTTISLRSSSQLLYSEIIVAGRVARNELFKFNRLHTKISILQDEKPIYYDNTILDPKTTDLNNMCMFDGYTHYLNLVLVNCPIELSGVRECIEESEGVDGAVSETASSHLCVKALAKGSEPLLHLREKIARLVTQTTTQKV,not soluble
14,MSLKYGGIIMKEILVIAPTKGTYEKSIHIVKKNKYKTIDVVFGNLKEGIPLAEKSINHGTRIIISRGGTYNMLKATYNIPIVEIKVDAYDIIKSYKEVKNSNEPFGIIGFNNVIYGFDIIEEILNKKITMIEIEKEEEIYDAIEKYRKKGINTYIGDTTVAHIVKRLNCKGILIESREENILRAIQQAEQILEATKDEQKRRLQIEAMTDFVHDGIITVDKNFKITLFNKSAEKIFGIKKENALYHNVVDVIPNTVLPQVVETMEPQIGEIQNIGSTKIITNRVPIIVDGQIQGAVSTFQDSKEISSFEHTIRRSLLSKGLSAEGHHHHHH,soluble
15,GPGSMQQPTAQEEQYVNVPVPLTGEEKGWQEVAPNRYIRYEQFGGSDAEMNFIVNLFTAELTEPYSSFTYQYFVFGWPDLCITAFGVESETKPDNSVVGEKVGAVVSRVTRKGAGMPLRGYVAMFAVVPKFRGYRLGSRLVSLTVELMRAKGCDEVYLETPTSNVRALGLYLNLGFAKTKYLPRYYLDHSDAVRLKLWLKDAIPKSVPETASTAGVEKA,soluble
16,MGGSHHHHHHGMASALERYAAALEEVADGARQQERHYQLLSALQSLVKELPSSFQQRLSYTTLSDLALALLDGTVFEIVQGLLEIQHLTEKSLYNQRLRLQNEHRVLRQALRQKHQEAQQACRPHNLPVVQAAQQRELEAVEHRIREEQRAMDQKIILELDRKVADQQSTLEKAGVAGFYVTTNPQELMLQMNLLELIRKLQQRGCRAGNAALGLGGPWQSPAAQCDQKGSPVPP,not soluble
17,MCTGFTIQTLNNQVLLGRTMDYDYPLDGSPAVTPRNYRWKSRTGTTGQTQYGFIGTGTDMEGFIYGDGVNEHGVAISTQYFRGYSSYGSTHKADAMNITQNEIVTWILVYTTSIEDMKQQASQIHVVAVYLNDIGEVPPLHYHVSDATGHTVEVSFKEGEVVIKDNPIGVLTNHPDLNWHYSNLRQYINISPYPATANLLEGVTIEPLGNEAGTFGLPGGFTSTERFVRMTFMKANIAQNNDKEMDLMNAFYLLDAVNIPIGIVRPHDADNHYTMYQTVINLTTRTLYIKYYGSNELVALKLTDDLINRKDMTIFKPEKHITIRKLNDNQ,not soluble
18,MDHHHHHHHHMPRTTGMNVAVVGGGISGLAVAHHLRSRGTDAVLLESSARLGGAVGTHALAGYLVEQGPNSFLDREPATRALAAALNLEGRIRAADPAAKRRYVYTRGRLRSVPASPPAFLASDILPLGARLRVAGELFSRRAPEGVDESLAAFGRRHLGHRATQVLLDAVQTGIYAGDVEQLSVAATFPMLVKMEREHRSLILGAIRAQKAQRQAALPAGTAPKLSGALSTFDGGLQVLIDALAASLGDAAHVGARVEGLAREDGGWRLIIEEHGRRAELSVAQVVLAAPAHATAKLLRPLDDALAALVAGIAYAPIAVVHLGFDAGTLPAPDGFGFLVPAEEQRRMLGAIHASTTFPFRAEGGRVLYSCMVGGARQPGLVEQDEDALAALAREELKALAGVTARPSFTRVFRWPLGIPQYNLGHLERVAAIDAALQRLPGLHLIGNAYKGVGLNDCIRNAAQLADALVAGNTSHAP,soluble
19,MAGENIIIDLNFAVSANPREVWDVLTDFDRMADFVSNLKESKVVSISEDKFTIFQNGTATYGPIRYPFESIREVRLIPYHKILTHLVSGNMHKLDGTTYLTDETGGTRVVHRTEAIPKVWIPAVVGKVFIEHEVREQFNEMRNEIIRRKRAALKKGHEKQDGRLEHHHHHH,soluble
20,MANEANPCPCDIGHKLEYGGMGHEVQVEHIKAYVTRSPVDAGKAVIVVQDIFGWQLPNTRYMADMIARNGYTTIVPDFFVGQEPWDPAGDWSTFPAWLKSRNARKVNREVDAVLRYLRQQCHAQKIGIVGFCWGGVVVHQVMTAYPDIRAGVSVYGIIRDSEDVYNLKNPTLFIFAENDTVIPLEQVSTLTQKLKEHCIVNYQVKTFSGQTHGFVHRKREDCSPADKPYIEEARRNLIEWLNKYV,not soluble
21,MVLEGIHSHDPQARDIAIQYYHAAETTIYDYIARRHPQSAQCVTDFMSTVMSGLSAKAREGHSIEQLCATAALAGEAIKTLLKE,not soluble
22,SSSGYSSLEEDEDFFFTARTSFFRRAPPGKSRSGQPDVEKEKETHNYLSKEEIKEKVHKYNSAVTDKLKMTLNSNGIYTGFIKVQMELCKPAQPSPEPSSGGCMNTLHISSTNTVGEVIEALLRKFLVTESPTKFALYKRCHREDQVYACKLSDREHPLYLRLVAGPRTDTLSFVLREHEIGEWEAFSLPELQNFLRILDKEEDEQLQSLKRRYTAYRQKLEEALGEVWKPG,soluble
23,MGSDKIHHHHHHASGGVEKINHIVVIYLENRSFDNMFGRFPGADGLEAAKGAPVQVDREGKPYTVLPPILDEKTKQPDPRFPAQIANAPFDIGPHVGQSEKHRDLVHRFYQNMEQINGGRNDKFAAWSDAGGLVMGTYDTSNTRLWALAREFTLADNFFQAAFGGSFLNHFWLICACTPQYEAAPASIRAQLDGDGHLVKDGAVTPDGYPVNTIFSFYPPYPPSATDLAKRLPPQTAPNIGDRLSGKNVSWAWYSGGYAAALEGRNQGNFQYHHQPFVYFASTGEGTKAKARHLKDEAPLFESVAAGRLESVVFYKPVGDENQHPGYADLASGDAKAARLVDAIRASALWKDTAIIITYDENGGFWDHVAPPKGDRWGPGTRIPALIISPYAKRGFVDHTVYDTTSILKLIETRFGLPPLGRRDAVANDLTAAFDFTSERR,not soluble

# Source: the DeepSol protein solubility set
